Test results reported in US20210324108A1 (Hoffmann-La Roche, published 2021).
Positions count from the first letter of the chain named. Names and notes keep the numbering of the source.

B1: FAP (4B9)-CD40 Contorsbody P1AE1800 (bispecific antibody, IgG1)
chain 1: not shown
chain 2: DIQMTQSPSSLSASVGDRVTITCRSSQSLVHSNGNTFLHWYQQKPGKAPKLLIYTVSNRFSGVPSRFSGSGSGTDFTLTISSLQPEDFATYFCSQTTHVPWTFGGGTKVEIKRTVAAPSVFIFPPSDEQLKSGTASVVCLLNNFYPREAKVQWKVDNALQSGNSQESVTEQDSKDSTYSLSSTLTLSKADYEKHKVYACEVTHQGLSSPVTKSFNRGECGGGGSGGGGSDKTHTCPPCPAPEAAGGPSVFLFPPKPKDTLMISRTPEVTCVVVDVSHEDPEVKFNWYVDGVEVHNAKTKPREEQYNSTYRVVSVLTVLHQDWLNGKEYKCKVSNKALGAPIEKTISKAKGQPREPQVCTLPPSRDELTKNQVSLSCAVKGFYPSDIAVEWESNGQPENNYKTTPPVLDSDGSFFLVSKLTVDKSRWQQGNVFSCSVMHEALHNHYTQKSLSLSPGKGGGGSGGGGSEVQLLESGGGLVQPGGSLRLSCAASGYSFTGYYIHWVRQAPGKGLEWVGRVIPNAGGTSYNQKFKGRFTISVDNSKNTAYLQMNSLRAEDTAVYYCAREGIYWWGQGTTVTVSSASTKGPSVFPLAPSSKSTSGGTAALGCLVKDYFPEPVTVSWNSGALTSGVHTFPAVLQSSGLYSLSSVVTVPSSSLGTQTYICNVNHKPSNTKVDKKVEPKSCGGGGSGGGGSGGGSGGGGSEIVLTQSPGTLSLSPGERATLSCRASQSVTSSYLAWYQQKPGQAPRLLINVGSRRATGIPDRFSGSGSGTDFTLTISRLEPEDFAVYYCQQGIMLPPTFGQGTKVEIKSSASTKGPSVFPLAPSSKSTSGGTAALGCLVKDYFPEPVTVSWNSGALTSGVHTFPAVLQSSGLYSLSSVVTVPSSSLGTQTYICNVNHKPSNTKVDKKVEPKSC
notes: 2+1 contorsbody; IgG1 Fc knob/hole, P329G LALA
B2: FAP (4B9)-CD40 Contorsbody P1AE2052 (bispecific antibody, IgG1)
chain 1: not shown
chain 2: B1 chain 2
notes: as for B1
B3: FAP (4B9)-CD40 Contorsbody P1AE1799 (bispecific antibody, IgG1)
chain 1: not shown
chain 2: EVQLLESGGGLVQPGGSLRLSCAASGYSFTGYYIHWVRQAPGKGLEWVGRVIPNAGGTSYNQKFKGRFTISVDNSKNTAYLQMNSLRAEDTAVYYCAREGIYWWGQGTTVTVSSASTKGPSVFPLAPSSKSTSGGTAALGCLVKDYFPEPVTVSWNSGALTSGVHTFPAVLQSSGLYSLSSVVTVPSSSLGTQTYICNVNHKPSNTKVDKKVEPKSCGGGGSGGGGSDKTHTCPPCPAPEAAGGPSVFLFPPKPKDTLMISRTPEVTCVVVDVSHEDPEVKFNWYVDGVEVHNAKTKPREEQYNSTYRVVSVLTVLHQDWLNGKEYKCKVSNKALGAPIEKTISKAKGQPREPQVCTLPPSRDELTKNQVSLSCAVKGFYPSDIAVEWESNGQPENNYKTTPPVLDSDGSFFLVSKLTVDKSRWQQGNVFSCSVMHEALHNHYTQKSLSLSPGKGGGGSGGGGSDIQMTQSPSSLSASVGDRVTITCRSSQSLVHSNGNTFLHWYQQKPGKAPKLLIYTVSNRFSGVPSRFSGSGSGTDFTLTISSLQPEDFATYFCSQTTHVPWTFGGGTKVEIKRTVAAPSVFIFPPSDEQLKSGTASVVCLLNNFYPREAKVQWKVDNALQSGNSQESVTEQDSKDSTYSLSSTLTLSKADYEKHKVYACEVTHQGLSSPVTKSFNRGECGGGGSGGGGSGGGSGGGGSEIVLTQSPGTLSLSPGERATLSCRASQSVTSSYLAWYQQKPGQAPRLLINVGSRRATGIPDRFSGSGSGTDFTLTISRLEPEDFAVYYCQQGIMLPPTFGQGTKVEIKSSASTKGPSVFPLAPSSKSTSGGTAALGCLVKDYFPEPVTVSWNSGALTSGVHTFPAVLQSSGLYSLSSVVTVPSSSLGTQTYICNVNHKPSNTKVDKKVEPKSC
notes: as for B1
B4: FAP (4B9)-CD40 Contorsbody P1AE2255 (bispecific antibody, IgG1)
chain 1: not shown
chain 2: B3 chain 2 with K144E, K210E, E592R, Q593K
notes: 2+1 contorsbody with charged residues in the CD40 Fabs; IgG1 Fc knob/hole, P329G LALA
B5: FAP (4B9)-CD40 Contorsbody P1AE1901 (bispecific antibody, IgG1)
chain 1: not shown
chain 2: DIQMTQSPSSLSASVGDRVTITCRSSQSLVHSNGNTFLHWYQQKPGKAPKLLIYTVSNRFSGVPSRFSGSGSGTDFTLTISSLQPEDFATYFCSQTTHVPWTFGGGTKVEIKRTVAAPSVFIFPPSDEQLKSGTASVVCLLNNFYPREAKVQWKVDNALQSGNSQESVTEQDSKDSTYSLSSTLTLSKADYEKHKVYACEVTHQGLSSPVTKSFNRGECGGGGSGGGGSDKTHTCPPCPAPEAAGGPSVFLFPPKPKDTLMISRTPEVTCVVVDVSHEDPEVKFNWYVDGVEVHNAKTKPREEQYNSTYRVVSVLTVLHQDWLNGKEYKCKVSNKALGAPIEKTISKAKGQPREPQVCTLPPSRDELTKNQVSLSCAVKGFYPSDIAVEWESNGQPENNYKTTPPVLDSDGSFFLVSKLTVDKSRWQQGNVFSCSVMHEALHNHYTQKSLSLSPGKGGGGSGGGGSEVQLLESGGGLVQPGGSLRLSCAASGYSFTGYYIHWVRQAPGKGLEWVGRVIPNAGGTSYNQKFKGRFTISVDNSKNTAYLQMNSLRAEDTAVYYCAREGIYWWGQGTTVTVSSASTKGPSVFPLAPSSKSTSGGTAALGCLVKDYFPEPVTVSWNSGALTSGVHTFPAVLQSSGLYSLSSVVTVPSSSLGTQTYICNVNHKPSNTKVDKKVEPKSCGGGGSGGGGSGGGSGGGGSEVQLLESGGGLVQPGGSLRLSCAASGFTFSSYAMSWVRQAPGKGLEWVSAIIGSGASTYYADSVKGRFTISRDNSKNTLYLQMNSLRAEDTAVYYCAKGWFGGFNYWGQGTLVTVSSASVAAPSVFIFPPSDEQLKSGTASVVCLLNNFYPREAKVQWKVDNALQSGNSQESVTEQDSKDSTYSLSSTLTLSKADYEKHKVYACEVTHQGLSSPVTKSFNRGEC
notes: as for B1
B6: FAP (4B9)-CD40 Contorsbody P1AE1902 (bispecific antibody, IgG1)
chain 1: not shown
chain 2: EVQLLESGGGLVQPGGSLRLSCAASGYSFTGYYIHWVRQAPGKGLEWVGRVIPNAGGTSYNQKFKGRFTISVDNSKNTAYLQMNSLRAEDTAVYYCAREGIYWWGQGTTVTVSSASTKGPSVFPLAPSSKSTSGGTAALGCLVKDYFPEPVTVSWNSGALTSGVHTFPAVLQSSGLYSLSSVVTVPSSSLGTQTYICNVNHKPSNTKVDKKVEPKSCGGGGSGGGGSDKTHTCPPCPAPEAAGGPSVFLFPPKPKDTLMISRTPEVTCVVVDVSHEDPEVKFNWYVDGVEVHNAKTKPREEQYNSTYRVVSVLTVLHQDWLNGKEYKCKVSNKALGAPIEKTISKAKGQPREPQVCTLPPSRDELTKNQVSLSCAVKGFYPSDIAVEWESNGQPENNYKTTPPVLDSDGSFFLVSKLTVDKSRWQQGNVFSCSVMHEALHNHYTQKSLSLSPGKGGGGSGGGGSDIQMTQSPSSLSASVGDRVTITCRSSQSLVHSNGNTFLHWYQQKPGKAPKLLIYTVSNRFSGVPSRFSGSGSGTDFTLTISSLQPEDFATYFCSQTTHVPWTFGGGTKVEIKRTVAAPSVFIFPPSDEQLKSGTASVVCLLNNFYPREAKVQWKVDNALQSGNSQESVTEQDSKDSTYSLSSTLTLSKADYEKHKVYACEVTHQGLSSPVTKSFNRGECGGGGSGGGGSGGGSGGGGSEVQLLESGGGLVQPGGSLRLSCAASGFTFSSYAMSWVRQAPGKGLEWVSAIIGSGASTYYADSVKGRFTISRDNSKNTLYLQMNSLRAEDTAVYYCAKGWFGGFNYWGQGTLVTVSSASVAAPSVFIFPPSDEQLKSGTASVVCLLNNFYPREAKVQWKVDNALQSGNSQESVTEQDSKDSTYSLSSTLTLSKADYEKHKVYACEVTHQGLSSPVTKSFNRGEC
notes: as for B1

Target: T1, recombinant human CD40_ECD (human, UniProt P25942 21-193)
T1 construct: also called human CD40 extra cellular domain
Experiment: SPR Biacore T200, huCD40 ECD analyte, apparent KD
Experimental: The capacity of the bispecific constructs to bind human CD40 was assessed by surface plasmon resonance (SPR). […] Bulk refractive index differences were corrected by subtracting the response obtained from a goat anti human F(ab′)2 surface. Blank injections are also subtracted (=double referencing). For calculation of apparent KD and other kinetic parameters the Langmuir 1:1 model was used. The apparent Kd was calculated using the Biacore™ B4000 evaluation software (version 1.1).

Binder | Kd | koff | kon | t 1/2
B1 | 9.43 nM | 0.0127 s⁻¹ | 1.35e+06 M⁻¹ s⁻¹ | 0.917 min
B2 | 7.2 nM | 0.00681 s⁻¹ | 945000 M⁻¹ s⁻¹ | 1.7 min
B3 | 15.7 nM | 0.0151 s⁻¹ | 957000 M⁻¹ s⁻¹ | 0.767 min
B4 | 17.3 nM | 0.0159 s⁻¹ | 918000 M⁻¹ s⁻¹ | 0.733 min
B5 | 6.98 nM | 0.00692 s⁻¹ | 991000 M⁻¹ s⁻¹ | 1.67 min
B6 | 18.7 nM | 0.0145 s⁻¹ | 776000 M⁻¹ s⁻¹ | 0.8 min

Target: T2, recombinant human FAP (human, UniProt Q12884 26-760)
T2 construct: exact construct not described; also called FAP ECD; not shown: The histidine tag (and any linker to it) implied by capture on an anti-histidine antibody
Experiment: SPR, huFAP captured (anti-His), Ab analyte
Experimental: Around 12000 resonance units (RU) of the capturing system (15 μg/ml anti-histidine antibody; Order Code: 28995056; GE Healthcare Bio-Sciences AB, Sweden) were coupled on a CMS chip (GE Healthcare BR-1005-30) at pH 4.5 by using an amine coupling kit supplied by the GE Healthcare. Running buffer for Immobilization was HBS-N pH 7.4 (10 mM HEPES, 150 mM NaCl, pH 7.4, GE Healthcare). For the following kinetic characterization running buffer was PBS-P pH 7.4 (20 mM phosphate buffer, 2.7 mM KCl, 137 mM NaCl, 0.05% surfactant P20). The flow cell was set to 25° C.—and the sample block set to 12° C.—and primed with running buffer twice. […] The dissociation phase was monitored for up to 720 s and triggered by switching from the sample solution to running buffer. The surface was regenerated by washing with 10 mM Glycine pH 1.5 for 60 s at a flow rate of 30 μl/min. Bulk refractive index differences were corrected by subtracting the response obtained from an anti-histidine surface. Blank injections are also subtracted (=double referencing). For calculation of KD and kinetic parameters the Langmuir 1:1 model was used.

Binder | Kd | koff | kon | t 1/2
B1 | 9.07 nM | 0.000778 s⁻¹ | 85700 M⁻¹ s⁻¹ | 14.8 min
B2 | 8.31 nM | 0.000296 s⁻¹ | 35600 M⁻¹ s⁻¹ | 39.1 min
B3 | 4.58 nM | 0.000253 s⁻¹ | 55300 M⁻¹ s⁻¹ | 45.7 min
B4 | 4.44 nM | 0.000235 s⁻¹ | 52800 M⁻¹ s⁻¹ | 49.2 min
B5 | 7.05 nM | 0.000269 s⁻¹ | 38200 M⁻¹ s⁻¹ | 43 min
B6 | 5.33 nM | 0.000288 s⁻¹ | 54100 M⁻¹ s⁻¹ | 40.1 min
